Reference: patent US20220275077A1
Like-named read-outs stand apart in the source and are kept apart here.

T1: FERD3L (human) (UniProt Q96RJ6)
T1 sequence (looked up): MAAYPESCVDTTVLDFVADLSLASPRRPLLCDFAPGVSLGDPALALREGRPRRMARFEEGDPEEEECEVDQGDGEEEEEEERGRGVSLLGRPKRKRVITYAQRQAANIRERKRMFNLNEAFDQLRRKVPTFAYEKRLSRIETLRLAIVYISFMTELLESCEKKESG

T2: human Interleukin-38 (IL-38) (human) (UniProt Q8WWZ1)
T2 sequence (looked up): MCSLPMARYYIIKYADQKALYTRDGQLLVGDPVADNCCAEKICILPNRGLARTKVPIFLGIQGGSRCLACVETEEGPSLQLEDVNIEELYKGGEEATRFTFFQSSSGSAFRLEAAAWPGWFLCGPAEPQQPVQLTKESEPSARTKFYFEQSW

T3: IL-36Ra (human) (UniProt Q9UBH0)
T3 sequence (looked up): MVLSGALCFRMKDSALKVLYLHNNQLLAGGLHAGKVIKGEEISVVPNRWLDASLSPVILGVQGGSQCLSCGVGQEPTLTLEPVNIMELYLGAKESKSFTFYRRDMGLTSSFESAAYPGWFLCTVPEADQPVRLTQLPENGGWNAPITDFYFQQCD

T4: IL-33 (human) (UniProt O95760)
T4 sequence (looked up): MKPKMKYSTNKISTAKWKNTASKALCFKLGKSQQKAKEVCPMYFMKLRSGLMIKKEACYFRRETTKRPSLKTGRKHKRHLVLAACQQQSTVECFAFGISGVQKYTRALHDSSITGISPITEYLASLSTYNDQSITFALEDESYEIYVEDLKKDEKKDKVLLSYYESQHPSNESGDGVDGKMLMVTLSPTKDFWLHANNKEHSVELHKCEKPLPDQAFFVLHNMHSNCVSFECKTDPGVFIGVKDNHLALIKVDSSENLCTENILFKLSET

T5: IL-1α (human) (UniProt P01583)
T5 sequence (looked up): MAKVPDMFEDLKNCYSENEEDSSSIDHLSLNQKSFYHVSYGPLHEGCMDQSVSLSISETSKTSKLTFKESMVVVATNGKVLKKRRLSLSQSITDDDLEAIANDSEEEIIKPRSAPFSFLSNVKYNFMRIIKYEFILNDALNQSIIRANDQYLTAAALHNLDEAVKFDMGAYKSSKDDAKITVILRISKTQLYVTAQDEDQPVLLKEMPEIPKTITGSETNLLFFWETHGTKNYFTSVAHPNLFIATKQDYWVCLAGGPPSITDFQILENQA

T6: IL-37 (human) (UniProt Q9NZH6)
T6 sequence (looked up): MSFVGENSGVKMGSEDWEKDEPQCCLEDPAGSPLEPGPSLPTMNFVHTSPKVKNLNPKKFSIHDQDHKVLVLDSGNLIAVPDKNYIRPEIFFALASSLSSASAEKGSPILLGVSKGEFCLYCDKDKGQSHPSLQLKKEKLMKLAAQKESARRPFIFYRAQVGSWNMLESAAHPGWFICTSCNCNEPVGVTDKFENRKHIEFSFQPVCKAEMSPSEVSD

T7: IL-36a (human) (UniProt Q9UHA7)
T7 sequence (looked up): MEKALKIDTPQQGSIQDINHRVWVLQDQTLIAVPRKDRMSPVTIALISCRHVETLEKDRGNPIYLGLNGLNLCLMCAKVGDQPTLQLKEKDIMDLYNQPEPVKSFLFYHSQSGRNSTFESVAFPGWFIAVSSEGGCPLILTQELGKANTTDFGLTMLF

T8: IL-36b (human) (UniProt Q9NZH7)
T8 sequence (looked up): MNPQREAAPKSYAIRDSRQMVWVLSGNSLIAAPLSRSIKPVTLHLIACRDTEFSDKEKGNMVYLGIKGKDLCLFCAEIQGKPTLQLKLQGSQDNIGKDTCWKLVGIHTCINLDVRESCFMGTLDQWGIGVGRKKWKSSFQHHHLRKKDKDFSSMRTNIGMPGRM

T9: IL-36g (human) (UniProt Q9NZH8)
T9 sequence (looked up): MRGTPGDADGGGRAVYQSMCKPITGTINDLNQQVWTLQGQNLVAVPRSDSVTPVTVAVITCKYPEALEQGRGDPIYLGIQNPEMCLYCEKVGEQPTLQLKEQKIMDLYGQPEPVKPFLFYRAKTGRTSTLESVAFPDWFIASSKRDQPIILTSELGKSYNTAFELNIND


Legend:
[1] = target: T1, FERD3L (human); experiment: CDI HuProt native protein microarray
[2] = target: T2, human Interleukin-38 (IL-38) (human); experiment: CDI HuProt native protein microarray
[3] = target: T3, IL-36Ra (human); experiment: CDI HuProt native protein microarray
[4] = target: T4, IL-33 (human); experiment: CDI HuProt native protein microarray
[5] = target: IL-1Ra (human) (UniProt P18510); experiment: CDI HuProt native protein microarray
Sequence of IL-1Ra (human) (P18510 26-177 limits assumed): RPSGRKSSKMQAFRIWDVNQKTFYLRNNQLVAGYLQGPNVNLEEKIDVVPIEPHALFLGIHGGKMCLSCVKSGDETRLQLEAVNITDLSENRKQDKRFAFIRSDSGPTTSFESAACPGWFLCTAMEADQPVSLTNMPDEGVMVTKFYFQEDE

[6] = target: T2, human Interleukin-38 (IL-38) (human); experiment: CDI HuProt native protein microarray; remark: listed apart in the source
[7] = target: T5, IL-1α (human); experiment: CDI HuProt native protein microarray
[8] = target: T6, IL-37 (human); experiment: CDI HuProt native protein microarray
[9] = target: T7, IL-36a (human); experiment: CDI HuProt native protein microarray
[10] = target: IL-18 (human) (UniProt Q14116); experiment: CDI HuProt native protein microarray
Sequence of IL-18 (human) (Q14116 whole entry): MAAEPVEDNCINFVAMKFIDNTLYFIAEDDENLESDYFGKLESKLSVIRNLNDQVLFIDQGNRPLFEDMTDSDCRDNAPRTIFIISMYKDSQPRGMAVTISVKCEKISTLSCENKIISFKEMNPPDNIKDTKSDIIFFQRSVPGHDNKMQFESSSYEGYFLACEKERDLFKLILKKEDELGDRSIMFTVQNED

[11] = target: T8, IL-36b (human); experiment: CDI HuProt native protein microarray
[12] = target: IL-1β (human) (UniProt P01584); experiment: CDI HuProt native protein microarray
Sequence of IL-1β (human) (P01584 whole entry): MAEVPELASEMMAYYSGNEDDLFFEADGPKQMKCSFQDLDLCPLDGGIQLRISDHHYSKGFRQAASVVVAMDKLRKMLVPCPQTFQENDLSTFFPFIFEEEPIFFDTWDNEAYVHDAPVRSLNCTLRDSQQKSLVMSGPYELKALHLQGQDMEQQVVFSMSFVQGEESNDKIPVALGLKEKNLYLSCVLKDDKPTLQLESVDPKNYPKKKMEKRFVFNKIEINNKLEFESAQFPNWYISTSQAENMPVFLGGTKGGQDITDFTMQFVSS

[13] = target: T9, IL-36g (human); experiment: CDI HuProt native protein microarray
[14] = target: Hnmph1; experiment: CDI HuProt native protein microarray
[15] = target: T2, human Interleukin-38 (IL-38) (human); experiment: BLI (Octet QKe), antibody on anti-mouse Fc biosensor, soluble IL-38, 1:1 model

Binder	F635 [1]	Z-score [1]	s-score [1]	F635 [2]	s-score [2]	Z-score [3]	Z-score [4]	Z-score [5]	Z-score [6]	Z-score [7]	Z-score [8]	Z-score [9]	Z-score [10]	Z-score [11]	Z-score [12]	Z-score [13]	further results
CD1-M8 (antibody, from a related filing, V domains shown) VH: EVQLQQSGPELVKPGASVKMSCKASGYTFTDYYIHWVKQSHGKGLEWIGYIFPNNGGNGYSQKFKGKATMTVDKSSSTAYMELRSLTSEDSAVYYCARGGYDAGFVYWGQGTLVTVSA VL: DIVMSQSPSSLAVSAGEKVTMSCKSSQSLFNSGARKNFLAWYQQKPGQSPKLLIYWASTRESGVPDRFTGSGSGTDFTLTISSVQAEDLAVYYCKQSYYLITFGAGTKLELK	16300	50.9	40.8	45600	91.5	-0.019	-0.014	0.003	142	-0.014	-0.016	0.012	-0.016	-0.01	-0.017	-0.008	
CD1-M3 (antibody, from a related filing, V domains shown) VH: EVQLQQSGPELVKPGASVKIPCKASGYTFTDYNMDWVKQSHGKSLEWIGDINPNNGGTIYNQKFKGKATLTVDKSSSTAYMELRSLTSEDTAVYYCSRPYYGYFAYWGQGTLVTVSA VL: DVVMTQSPLSLPVSLGDQASISCRSSQSLVHSHENTFLHWYLQKPGQSPKLLIYRVSNRFSGVPDRFSGSGSGTDFTLKISRVEAEDLGVYFCSQSTHVPLTFGAGTKLELK	19100	49.2	26.2	54000	90.3	-0.017	-0.02	-0.013	140	-0.013	-0.013	-0.008	-0.016	-0.016	-0.016	-0.017	Z-score [2]: 140; F635 [14]: 4130; Z-score [14]: 10.6; s-score [14]: 5; Kd [15]: 0.721 nM
